Results from patent US20250002594A1 (SHANGHAI EPIMAB BIOTHERAPEUTICS, published 2025).

Legend:
[1] = molecular target: T1, CD122/CD132 complex on HEK-Blue IL-2 cells (UniProt P14784 27-551; P31785 23-369, limits assumed); experiment: cell-based or functional assay
T1 sequence (looked up) 1: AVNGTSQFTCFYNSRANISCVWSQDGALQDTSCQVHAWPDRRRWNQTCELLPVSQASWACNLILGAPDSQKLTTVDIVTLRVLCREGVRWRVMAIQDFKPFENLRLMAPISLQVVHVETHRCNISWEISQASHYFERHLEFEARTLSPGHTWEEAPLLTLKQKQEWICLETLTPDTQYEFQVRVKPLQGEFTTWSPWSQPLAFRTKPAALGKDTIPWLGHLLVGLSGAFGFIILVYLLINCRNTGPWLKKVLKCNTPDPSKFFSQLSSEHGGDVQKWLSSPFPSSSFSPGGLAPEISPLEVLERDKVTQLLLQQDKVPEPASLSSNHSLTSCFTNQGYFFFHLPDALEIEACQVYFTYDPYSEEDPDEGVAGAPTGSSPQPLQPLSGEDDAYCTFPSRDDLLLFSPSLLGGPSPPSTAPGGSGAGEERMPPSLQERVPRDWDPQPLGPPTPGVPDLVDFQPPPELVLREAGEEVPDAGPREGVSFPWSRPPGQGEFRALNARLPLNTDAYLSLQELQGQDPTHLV
T1 sequence (looked up) 2: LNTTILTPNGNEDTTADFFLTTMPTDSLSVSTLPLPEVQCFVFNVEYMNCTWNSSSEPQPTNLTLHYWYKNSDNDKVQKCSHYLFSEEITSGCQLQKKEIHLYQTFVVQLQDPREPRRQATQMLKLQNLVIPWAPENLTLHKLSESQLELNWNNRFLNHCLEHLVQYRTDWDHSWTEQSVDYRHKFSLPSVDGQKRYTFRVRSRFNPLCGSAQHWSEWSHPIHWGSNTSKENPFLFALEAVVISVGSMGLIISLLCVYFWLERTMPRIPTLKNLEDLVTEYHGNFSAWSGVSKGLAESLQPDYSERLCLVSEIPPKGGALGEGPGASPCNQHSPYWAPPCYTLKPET

[2] = molecular target: T2, recombinant human CD132 (human, UniProt P31785 23-262, limits assumed); experiment: GCI (WAVEsystem), FIT-Ig captured by anti-human IgG Fc, antigen in solution
T2 construct: also called IL-2Rγ
T2 sequence (looked up): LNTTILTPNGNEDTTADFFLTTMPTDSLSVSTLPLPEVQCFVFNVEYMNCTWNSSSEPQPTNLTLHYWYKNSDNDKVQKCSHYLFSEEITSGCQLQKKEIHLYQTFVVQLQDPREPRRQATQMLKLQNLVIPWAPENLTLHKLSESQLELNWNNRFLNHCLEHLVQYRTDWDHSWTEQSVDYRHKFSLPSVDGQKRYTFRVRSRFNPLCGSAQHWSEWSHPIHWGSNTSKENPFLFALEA
Procedure: (§1) Binding affinity and kinetics constants of humanized CD122/CD132 FIT-Ig were determined using a label-free biosensor on WAVEsystem (Creoptix AG, Switzerland) by grating-coupled interferometry (GCI). Briefly, a PCP WAVEchip (Creoptix AG) was pre-immobilized with goat anti-human IgG Fc antibody to a density of 3830 pg/mm² by amine coupling, and used to capture humanized CD122/CD132 FIT-Ig generated from Example 3.2.1 to a density of ˜90 pg/mm², then exposed to recombinant human/cyno CD122 or CD132 serially diluted (3× dilutions from 200 nM to […] for human CD122, human CD132 and cyno CD132, respectively; and from 1000 nM to 1.37 nM for cyno CD122) in 1X HBS-EP+ buffer (Cytiva, Cat No. BR100669) by injection at 60 μL/min for 250s to assess association, followed by 1200s dissociation. After each round of association and dissociation, WAVEchip surface was regenerated by subject to pH 1.5 Glycine-HCl buffer injection at 60 μL/min for 120s. Sensorgrams were recorded at 25° C., the data were analyzed on WAVEcontrol (Creoptix AG) and double referenced by subtracting the signals from blank injections and the reference channel. A Langmuir 1:1 model was used for data fitting.

[3] = molecular target: T3, recombinant cyno CD122 (cynomolgus, UniProt Q38J85 27-239, limits assumed); experiment: as above
T3 construct: also called cynomolgus CD122
T3 sequence (looked up): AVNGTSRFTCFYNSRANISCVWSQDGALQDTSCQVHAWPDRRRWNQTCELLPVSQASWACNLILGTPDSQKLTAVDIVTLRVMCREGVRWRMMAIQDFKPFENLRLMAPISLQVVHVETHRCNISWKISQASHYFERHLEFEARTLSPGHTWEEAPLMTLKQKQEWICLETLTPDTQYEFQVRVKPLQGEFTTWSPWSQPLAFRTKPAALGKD
Procedure: as §1

[4] = molecular target: T4, recombinant human CD122 (human, UniProt P14784 27-239, limits assumed); experiment: as above
T4 construct: also called IL-2Rβ
T4 sequence (looked up): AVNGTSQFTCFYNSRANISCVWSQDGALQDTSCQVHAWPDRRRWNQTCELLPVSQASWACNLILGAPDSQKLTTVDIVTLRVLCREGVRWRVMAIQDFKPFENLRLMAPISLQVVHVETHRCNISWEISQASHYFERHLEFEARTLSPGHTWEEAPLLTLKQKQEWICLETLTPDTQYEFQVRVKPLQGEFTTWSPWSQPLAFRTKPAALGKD
Procedure: as §1

[5] = molecular target: T5, recombinant cyno CD132 (cynomolgus, UniProt A0A2K5VGJ6 23-262); experiment: as above
T5 construct: also called cynomolgus CD132
T5 sequence: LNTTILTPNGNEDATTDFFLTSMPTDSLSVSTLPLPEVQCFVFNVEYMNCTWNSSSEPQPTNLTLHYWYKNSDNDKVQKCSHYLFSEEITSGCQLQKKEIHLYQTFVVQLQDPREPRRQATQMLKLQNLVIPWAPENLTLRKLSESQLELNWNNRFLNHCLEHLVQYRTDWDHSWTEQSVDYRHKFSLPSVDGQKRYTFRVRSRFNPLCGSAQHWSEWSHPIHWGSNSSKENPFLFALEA
Procedure: as §1

[6] = molecular target: T6, human CD122 on HEK293 cells (human, UniProt P14784 27-551); experiment: Flow cytometry (Median-APC) on HEK293/CD122 cells; the box gives no unit, the axis is Ab conc.(nM)
T6 construct: whole, on cells; also called cell surface CD122
T6 sequence (looked up): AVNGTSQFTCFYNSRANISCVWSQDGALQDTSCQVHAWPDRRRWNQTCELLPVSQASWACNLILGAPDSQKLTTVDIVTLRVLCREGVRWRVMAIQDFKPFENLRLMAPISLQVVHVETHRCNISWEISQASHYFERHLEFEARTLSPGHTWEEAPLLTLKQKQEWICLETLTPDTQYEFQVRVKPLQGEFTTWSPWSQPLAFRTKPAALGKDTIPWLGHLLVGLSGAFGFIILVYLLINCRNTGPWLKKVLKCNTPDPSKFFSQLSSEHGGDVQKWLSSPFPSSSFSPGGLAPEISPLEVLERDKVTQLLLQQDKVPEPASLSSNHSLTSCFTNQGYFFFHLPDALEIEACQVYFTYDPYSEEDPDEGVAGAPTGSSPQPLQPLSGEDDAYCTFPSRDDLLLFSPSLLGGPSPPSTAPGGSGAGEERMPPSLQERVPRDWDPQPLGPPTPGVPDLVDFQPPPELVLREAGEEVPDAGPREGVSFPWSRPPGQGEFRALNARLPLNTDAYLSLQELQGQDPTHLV
Procedure: (§2) Briefly, a 96-well plate was seeded with 3×10⁵ cells each well, centrifuged at 400 g for 5 minutes and supernatants discarded, then added 100 μl of antibody (5× serial dilutions, 0.0064 to 100 nM) each well and gently mixed. After 60 minutes of incubation at 4° C., plates were washed several times to remove excess antibodies. Secondary fluorochrome-conjugated goat anti-human IgG antibody (Jackson Immunoresearch, Cat No. 109-606-098) was then added and incubated with cells at 4° C. for 20 minutes. After another round of centrifugation and washing, cells were resuspended in assay buffer (1X PBS containing 2% FBS) for reading on a flow-cytometer. Median Fluorescence Intensity (MFI) readouts were plotted against antibody concentration and analyzed with GraphPad Prism 6.0 software.

[7] = molecular target: T7, human CD132 on HEK293 cells (human, UniProt P31785 23-369); experiment: Flow cytometry (Median-APC) on HEK293/CD132 cells; the box gives no unit, the axis is Ab conc.(nM); the curve has no upper plateau in the range shown
T7 construct: whole, on cells; also called cell surface CD132
T7 sequence (looked up): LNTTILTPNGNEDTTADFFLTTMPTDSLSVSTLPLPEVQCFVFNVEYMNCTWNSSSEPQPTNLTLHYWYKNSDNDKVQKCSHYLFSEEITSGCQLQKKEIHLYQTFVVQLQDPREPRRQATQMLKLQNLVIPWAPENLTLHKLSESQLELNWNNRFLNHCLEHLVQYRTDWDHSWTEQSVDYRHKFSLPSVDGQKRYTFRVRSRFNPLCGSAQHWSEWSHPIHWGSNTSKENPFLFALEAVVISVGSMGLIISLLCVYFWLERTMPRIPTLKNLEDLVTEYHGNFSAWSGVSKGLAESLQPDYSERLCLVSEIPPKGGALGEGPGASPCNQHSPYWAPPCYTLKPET
Procedure: as §2

[8] = molecular target: T6, human CD122 on HEK293 cells; experiment: Flow cytometry (MFI) on HEK293 cells overexpressing human CD122; the table gives no unit, the axis is Fab conc.(nM)
Procedure: as §2

[9] = molecular target: T7, human CD132 on HEK293 cells; experiment: Flow cytometry (MFI) on HEK293 cells overexpressing human CD132; the table gives no unit, the axis is Fab conc.(nM); the curve has no upper plateau in the range shown
Procedure: as §2

[10] = molecular target: T2, recombinant human CD132; experiment: ELISA, plate coated with 1 µg/mL recombinant human CD132
Procedure: (§3) Plates were washed three times with PBST, added HRP labeled anti-human IgG secondary antibody and incubated at RT for 15 minutes, then washed 5 times with PBST. For color development, 100 μl of tetramethylbenzidine (TMB) chromogenic solution was added to each well, the reaction was quenched by 1 N HCl and absorbance at 450 nm was measured on a microplate reader. Binding signals were plotted against antibody concentration with GraphPad Prism 6.0 software and EC₅₀ values were calculated accordingly.

[11] = molecular target: T4, recombinant human CD122; experiment: ELISA, plate coated with 1 µg/mL recombinant human CD122
Procedure: as §3

[12] = molecular target: T4, recombinant human CD122; experiment: hybridoma supernatant screening, method not described
[13] = molecular target: T2, recombinant human CD132; experiment: as above

B1: huFIT2019-86b-51 (bispecific antibody, human IgG1, kappa, L234A L235A)
chain 1: not shown
chain 2: EVQLVQSGAEVKKPGASVKVSCKASGYTFTDYVISWVRQATGQGLEWMGEIYPGDAQTYYNEMFKGRVTMTRDTSISTAYMELSSLRSEDTAVYYCARGSYTYDNYAMDFWGQGTTVTVSSASTKGPSVFPLAPSSKSTSGGTAALGCLVKDYFPEPVTVSWNSGALTSGVHTFPAVLQSSGLYSLSSVVTVPSSSLGTQTYICNVNHKPSNTKVDKKVEPKSC
chain 3: not shown
notes: also called huFIT2019-8b-51
- EC50 from SEAP reporter gene assay [1]: 0.19 nM
- Kd [2]: 9.02 nM
- koff [2]: 0.000339 s⁻¹
- kon [2]: 37500 M⁻¹ s⁻¹
- Kd [3]: 91.6 nM
- koff [3]: 0.00697 s⁻¹
- kon [3]: 76100 M⁻¹ s⁻¹
- Kd [4]: 17.1 nM
- koff [4]: 0.00107 s⁻¹
- kon [4]: 62700 M⁻¹ s⁻¹
- Kd [5]: 10.6 nM
- koff [5]: 0.000286 s⁻¹
- kon [5]: 27000 M⁻¹ s⁻¹
- EC50 [6]: 5.27 nM
- EC50 [7]: 17.8 nM

B2: FIT2019-86b (bispecific antibody, human IgG1, kappa, L234A L235A)
chain 1: not shown
chain 2: QVQLQQSGPELVKPGASVKMSCKASGYRFSDYVISWVKQRSGQGLEWIGEIYPGDGNTYYNEMFKGRATLTADKSPNTAYMKLSSLTSEDSALYFCARGSYTYDNYAMDFWGQGTSVTVSSASTKGPSVFPLAPSSKSTSGGTAALGCLVKDYFPEPVTVSWNSGALTSGVHTFPAVLQSSGLYSLSSVVTVPSSSLGTQTYICNVNHKPSNTKVDKKVEPKSC
chain 3: DIQMTQTPSSLSASLGDRVTISCRASQDISNYLNWYQQKPDGTVKLLIYYKSRLHSGVPSRFSGSGSGTEYSLTINNLEQEDFATYFCHQGHTIPFTFGSGTKLEIKRTVAAPSVFIFPPSDEQLKSGTASVVCLLNNFYPREAKVQWKVDNALQSGNSQESVTEQDSKDSTYSLSSTLTLSKADYEKHKVYACEVTHQGLSSPVTKSFNRGEC
notes: FIT-Ig with mouse V domains of CD122-mAb77 (outer Fab) and CD132-mAb17 (inner Fab), human constant domains; also called anti-CD122/CD132 FIT2019-86b
- EC50 [8]: 2.2 nM
- EC50 [9]: 75.6 nM
- EC50 [10]: 0.662 nM
- EC50 from SEAP reporter gene assay [1]: 0.125 nM
- EC50 [11]: 0.324 nM

B3: CD122-mAb77 (antibody, V domains shown)
VH: QVQLQQSGPELVKPGASVKMSCKASGYRFSDYVISWVKQRSGQGLEWIGEIYPGDGNTYYNEMFKGRATLTADKSPNTAYMKLSSLTSEDSALYFCARGSYTYDNYAMDFWGQGTSVTVSS
VL: DVLMTQTPLSLPVSLGDQASISCRSSQNIVHSNGNTYLEWYLQKPGQSPKLLIYKVSNRFSGVPDRFSGSGSGTDFTLKISRVEAEDLGLYYCFQGSHIPWTFGGGTKLEIK
notes: Mouse hybridoma antibody; also called clone #CD122-mAb77
- binding result [12]: binds

B4: CD132-mAb17 (antibody, V domains shown)
VH: EVQLQQPGSELVRPGASVKLSCKASGYTFTSYWMHWMKQRPGQGLEWIGHIYLGGGATNYAEKFRSKATLTADTSSSTAYMQLSSLTSEDSAVYYCTRSQPYYYGMDSWGQGTSVTVSS
VL: DIQMTQTPSSLSASLGDRVTISCRASQDISNYLNWYQQKPDGTVKLLIYYKSRLHSGVPSRFSGSGSGTEYSLTINNLEQEDFATYFCHQGHTIPFTFGSGTKLEIK
notes: Mouse hybridoma antibody; also called clone #CD132-mAb17; mAb CD132-mAb17
- binding result [13]: binds
